Laboratory results reported in the DeepSol protein solubility set.

Test: soluble on expression in E. coli; label from the status in PepcDB or PDB records

Sequence | soluble on expression in E. coli
MPCRLTRLFGIEFPIIQAPMAGVQGSALAIAVSEAGGLGSLPCAMLSLEALEAELTAIRSQTAKPINVNFFCHREPVAQAAKQAAWLEQLAPYFAEFNLDPNAQPAGAQRTPYSKAQAEVLAKFKPEVVSFHFGLPDEELLLEIKSWGSKVISTATTVEEALWLEARGADAIIAQGLEAGGHRGHFLSEDLTEQLGTFSLLPQIIAAVEIPVIAAGGIVDATTVRAAMTMGASAVQVGTAYLLCPECNTSAIHREALQSDAAQHTALTNLFSGRPARGIVNRFMAEMGPMNEAVPDFPLASSAVAGLRTAAERLGFWDFSPLWCGQNASGCRAIPAADLTRSFVLSLPSSCVEPQEKSGAAALEHHHHHH | not soluble
MPDLSAAEFTLLQGAHLFAPEDRGICDVLLANGKIIAVGAGIPGDIVPDCTVINLSGRMLCPGFIDQHVHLIGGGGEAGPTTRTPEVSLSRLTEAGITTVVGLLGTDSVSRHPASLLAKTRALNEEGITAWMLTGAYHVPSPTITGSVEKDVALIDRVIGVKCAVSDHRSAAPSGNQLASMAAESRVGGLLGGKPGVSVFHMGSSKKGLQPLYDILENSDVPIGKLLPTHVNRSESLFEQALAFALKGGVIDITTSIPDPVAPAEGIARAVKAGVPLSRVTLSSDGNGSQPLFDAAGNLTGIGVAGFESLLETLQTLVNHYGFSLANALRPLTTSVAAFLSLDGKGEIRPGNDADLLVFSADLRIEQVYARGKRMVNEGKACVKGTFEPA | not soluble
MPDSTRQPSAPVRDRLQQYGLSETEAETYLAVVEKGPATARTVAETAGVSKSYVYDICDSLAVDGFVSVDDHRTPTVIRATPPSEAFSALKRELDTLEAAVQTRYEDTAAENNTFEVVKSRPTIVKRLEQHIEAADCEVILQIPARRLPDIRDPLRRARERGILVLLTLSSYDRATMELDLKEIANAVRIGLDGAPSLLATDQQRGFVSPSTMLSWDHDETNAITFTQEAVAAVLVGSYLGNYWPIGEEVLVSRPPSLPARYDMFRPVVFTTTLALRAGESVVADLYARPTGSDDDFEVISGEVVDVRQNLVAPHNSDFGFENSLVVDTGDSRITVGGYGAFLEDYEVKHTTLRRA | not soluble
MPDYLVVLQAAWIVRKARSVEDAMNIAVAEAGKKLNPDLDFVKIDVGDTACPKCNSPLKAVFMVAGVALVGLIFEMKVFNAKSPEHAAKIAKYEIGKRMPRIPLEVIEVAEIE | not soluble
MPEGKIIKALSGFYYVLDESEDSDKVIQCRGRGIFRKNKITPLVGDYVVYQAENDKEGYLMEIKERTNELIRPPICNVDQAVLVFSAVQPSFSTALLDRFLVLVEANDIQPIICITKMDLIEDQDTEDTIQAYAEDYRNIGYDVYLTSSKDQDSLADIIPHFQDKTTVFAGQSGVGKSSLLNAISPELGLRTNEISEHLGRGKHTTRHVELIHTSGGLVADTPGFSSLEFTDIEEEELGYTFPDIREKSSSCKFRGCLHLKEPKCAVKQAVEDGELKQYRYDHYVEFMTEIKDRKPRY | not soluble
MPEITRRRALTAAAAVAATASAAVTLAAPAASAAGHHEPAAPESFDEVYKGRRIQGRPARGAAHHHEHGGGYEVFVDGVQLHVMRNADGSWISVVSHFDPVPTPRAAARAAVDELQGAPLLPFPANLEHHHHHH | soluble
MPELSETAERSQSNTPLAMIMDDSDIDYQRFQELVASTDSLAILCHDNPDPDTLASALALEAIAKEWEVPTVDIVYGGTVTHQQNRAMINVLDIELTPIDQVSLSDYGLVAFVDHGIPGQNNSAVEEMTPDIIIDHHPTDGLQGQFVDLRPAVGATATLLTRYLEIFSIELEERLATALLFALHRETLDFNRETTSTEHAAACVLHPHADHNIIEELTNSVFTPETISGIGDAIANREVRGSCLVSSLGWIRERDAVPQAADYLLQLEGVSTTIVYGIVDDNVHLSGRTSNSQLHIGNVMEETFDQVGSAGGHHDMAGGQVPLGFIGSVDDGDDVAIDLINQSMMARLFGALEGWTET | not soluble
MPEPHAVLYVTNELSHIVKNEFLPIWKLTGDESLNDLWLENGKYATDVYAYGDVSKWTIRQLRGHGFIFISTHKNVQLADIIKTVDVRVPREVARSHDMKAFENEIGRRRIRMRKGFGDALRNYAFKMAIEFHGSEAETLNDANPRLHKIYGMPEIPPLYMEYAEIGTRFDDEPTDEKLVSMLHYIVYSAEEVHYIGCGDLRTLMQFKKRSPGRFRRVLWHVYDPIAPECSDPNVIVHNIMVDSKKDILKHMNFLKRVERPFIWDVSSDRSQMNDHEWETTRFAEDRLGEEIAYEMGGAFSSALIKHRIPNSKDEYHCISTYLFPQPGADADMYELRNFMRLRGYSHVDRHMHPDASVTKVVSRDVRKMVELYHGRDCGSFLKKRLFEHLHIVRKNGLLHESDEPRADLFYLTNRCNMGLEPSIYEVMKKSVIATAWVGRAPLYDYDDFALPRSTVMLNGSYRDIRILDGNGAILFLMWRYPDIVKKDLTYDPAWAMNFAVSLKEPIPDPPVPDISLCRFIGLRVESSVLRVRNPTLHETADELKRMGLDLSGHLYVTLMSGAYVTDLFWWFKMILDWSAQNREQKLRDLKRSAAEVIEWKEQMAERPWHVRNDLIAALREYKRKMGMREGASIDSWLELLRHL | soluble
MPFEIGTMPIMSIDPKLLEVLACPQDKGPLKYLEAEQVLVNERLEIAYRIDDGIPVMLVDESIAWPPAEKAAALEHHHHHH | not soluble
MPFKPVEHPKCPKCGKSVYAAEEMSAGGYKWHKFCFKCNMCNKLLDSCTVAPHEAELYCKQCHGRKFGPKGVGFGLGAGCLTTDSGEKFGGSKQT | not soluble
MPGLCTGPFAKGRCMSLLAQLDQKIAANGGLIVSCQPVPDSPLDKPEIVAAMALAAEQAGAVAIRIEGVANLQATRAVVSVPIIGIVKRDLEDSPVRITAYIEDVDALAQAGADIIAIDGTDRPRPVPVETLLARIHHHGLLAMTDCSTPEDGLACQKLGAEIIGTTLSGYTTPETPEEPDLALVKTLSDAGCRVIAEGRYNTPAQAADAMRHGAWAVTVGSAITRLEHICQWYNTAMKKAVL | soluble
MPGNHSEISLNEQNRVDDNDTKTKTTTRKKKKKKDVTIVDDDDNQFDTTNQLVKSKNRFLGKFRKKPKSPKRWSGSRKGGCFRVMRPRRREGGDDDSSVSSPVSDPNDERFSHEMLRVMLETNDFCSDECNPHR | soluble
MPIPAPSPDARAVVTGASQNIGAALATELAARGHHLIVTARREDVLTELAARLADKYRVTVDVRPADLADPQERSKLADELAARPISILCANAGTATFGPIASLDLAGEKTQVQLNAVAVHDLTLAVLPGMIERKAGGILISGSAAGNSPIPYNATYAATKAFVNTFSESLRGELRGSGVHVTVLAPGPVRTELPDASEASLVEKLVPDFLWISTEHTARVSLNALERNKMRVVPGLTSKAMSVASQYAPRAIVAPIVGAFYKRLGGS | not soluble
MPISYCVSAKKASVVVESVVGNFTGHENVNLIVARGNRIDVQLVSPEGLKNVCEIPIYGQVLTIALVKCKRDKRHSLIVVTEKWHMAILAYRDGKVVTRAAGCIADPTGRATDNLFSLTIHRNGLIAIRAFEGSVKMIQWESGTDLRHFNVRFDYPNVSDFKFVDTGEDDVYRVAFIYDDDHGKHLQFSDLNMHDKEFRTYSRQASIAADSSVLIPVPHAIGGVIVLGSNSVLYKPNDNLGEVVPYTCSLLENTTFTCHGIVDASGERFLLSDTDGRLLMLLLNVTESQSGYTVKEMRIDYLGETSIADSINYIDNGVVFVGSRLGDSQLIRLMTEPNGGSYSVILETYSNIGPIRDMVMVESDGQPQLVTCTGADKDGSLRVIRNGIGIDELASVDLAGVVGIFPIRLDSNADNYVIVSLSDETHVLQITGEELEDVKLLEINTDLPTIFASTLFGPNDSGIILQATEKQIRLMSSSGLSKFWEPTNGEIISKVSVNAANGQIVLAARDTVYLLTCIVDEMGALDIQLTAEKKFENEIACLDLSNEGDDPNNKATFLVLAFWSTFAMEVIQLPDLITVCHTDLPTKIIPRSIIATCIEEVHYLLVAFGDGALVYYVFDIKTGTHGEPKKSNVGTRPPSLHRVRNKNRQHLFVCSDRPVIIFSASKKLVFSNVNVKLVDTVCSLSSSAYRDCLVISDGNSMVFGTVDDIQKIHVRSIPMGESVLRIAYQKSTSTYGVCSNRTESKAERVFASKNALVTSQSRPKVASTRADMDESPPNTTSSFMVLDQNTFQVLHSHEFGPWETALSCISGQFTNDSSTYYVVGTGLIYPDETETKIGRIVVFEVDDVERSKLRRVHELVVRGSPLAIRILNGKLVAAINSSIRLFEWTTDKELRLECSSFNHVIALDLKVMNEEVAVADVMRSVSLLSYRMLEGNFEEVAKDWNSQWMVTCEFITAESILGGEAHLNLFTVEVDKTRPITDDGRYVLEPTGYWYLGELPKVMTRSTLVIQPEDSIIQYSQPIMFGTNQGTIGMIVQIDDKWKKFLIAIEKAIADSVKNCMHIEHSSYRTFVFQKRAEPPSGFVDGDLVESILDMDRSVAMDILSKVSDKGWDPSLPRDPVEILKVIEDLARMH | not soluble
MPITKIHARQIYDSRGNPTVEVDLFTEKGVFRAAVPSGASTGVHEALELRDGDKAVHLGKGVLKAVSNINEKIAPALIAKGFDVTAQKDIDDFMMALDGSENKGNLGANAILGVSLAVAKAGAVHKGLPLYKYIAELAGTGKVVLPVPAFNVINGGSHAGNKLAMQEFMILPVGASSFAEAMRMGSEVYHHLKAEIKKRYGLDATAVGDEGGFAPNIQDNKEGLDLLNTAIDKAGYTGKISIGMDVAASEFFKDGKYDLDFKNPASDSSKWLSGEQLTELYQSFIKEYPVVSIEDAFDQDDWDNWGKFHGATSIQLVGDDLTVTNPKRIQTAIDKKSCNCLLLKVNQIGSVTESIEAAKLSRANGWGVMVSHRSGETEDTFIADLVVGLATGQIKTGAPCRSERLAKYNQLLRIEEELGADAVYAGHNFRNPQV | not soluble
MPKFVVIELNDDAATIDLLSYCVKKNFERVSLLTRLEDHPYLRDDQDVVQDDTQSQGTDGMLLQLNDEERQRLMKMISTPGPQTLSMERIQMAPGQGQHILQQHQIPSTSSYTNNSFIYIKSDPQYKDEPQQQSNQFDATVNSVAHGQAGLSTLEMFACNGSPNGGDVLRRKTPSRKAEDSIKATCKVCGHDVMYSPQRTWNLMRHVWIMHQSSKPNQCSICGYSHIKPYVRKHIESQHKHDSNATIIDLKSPELEAEWSQLLDQCFGVTYRKWKHHKEDTQHTGGLLFDDDELRG | soluble
MPKGGASCLTPVYAGIRDDLNSFLRAYLQFESVRFFDYKVMFENRGMVGLFTGRHNSAEIIEFNECLLVHCLPYMEECVCPGTPRSLKERLFGLYSLYTFYYIQQEKHVVKVRMDPDSSRNFRRFAQFLLTEKIYDAYALCQKLLEDKAIKQVAFISIHDPSHFKRFYTDDKVSGVSIRTNLNDPLVNVKALVEQFDALGVIHKEYSRLKMKLGITSWMKLKDPIEELKKIIKTSLQAVESSSGVDEIVHTDHSAQQLASRGMQRSSIKDQAHSAALKFSRTRRHRSVKPVIVPAETFEYAPDPKKKKEAQETMPVSGRNGRKRGRPKSVPKSKVSNPARILYEKLAEDMISEHLSTDLTEQEAFTDRPQSSLEPQKNELFNWDAAPQDAQISNQTTEPSCGEDIFIEDFGEFKSQDDVMFTAEDFNDSLIPPLADSDSDLEIDA | not soluble
MPKLPRIDFYFDVISPYSYIAFEVFQKLETQWKGVTIRYIPFFLGAVMKESGNRPPAMLPARSIMMMTDLKRTAKFWDIPLTPPPLFMEWIKKYRTTGAMKVLLVLQEQDKELMLRAAREMWVRLWSRSEKIFEDQDFVEVLKAVGVKNPEQIVEKSKDEKYIKILMENTNKGVDLMAYGAPWINVHTEDGSEHSFFGSDRFHLIADLLQQPQPLPDRLFGQKSKL | not soluble
